From the DeepSol protein solubility set

Assay: soluble on expression in E. coli; label from the status in PepcDB or PDB records
With “MGSDKIHHHHHHMLEEGEHVLVAVSGGIDSMTLLYVLRKFSPLLKIKITAAHLDHRIRESSRRDREFVERICRQWNIPVETSEVDVPSLWKDSGKTLEEIAREVRYDFLKRTAKKVGASKIALAHHKNDLLETVVHRLIRGTGPLGLACISPKREEFIRPFLVFKRSEIEEYARKNNVPYVVDETNYNVKYTRNFIRHRIVPLMKELNPTVEDAVYRLVSVTHLLRNFVERTVQDFVERNVYFYKDYAVFVEPEDLFLFLEVTRWVLKEMYGRVPEYEKLIGTLKSKRVELWSGIFVERSFGYVAVGKTVFKKKYRVEVKGDMLEMEGFKIRVVNNRNDMKFWVRNRKEGDRIIVNGRERKLKDVFIEKKVPTFYRDRVPLLVDEEDRVLWVPGIARSDFLPEDVVVELLEYPVGYVKGGTYFEQV” the “soluble on expression in E. coli” value was “not soluble”.
In the case of “TAAVALVKANENAAAILNLKNAIQKTNAAVADVVQATQSLGTAVQAVQDHINSVVSPAITAANY”, the “soluble on expression in E. coli” value is reported as “soluble”.
In the case of “MIILKLEDSWGFQISKIAQEMDSQFSKKLTKYDIGSREYGILLTIHQYALLTQLKIGELNKVDRTTIGQLVDLLERKDFVARQKNPKDRRQNLLVLTKTGRSLAEEMWQEMKEIEKDVLKHLSAKQKETLLTMVKAIRKGELN”, the “soluble on expression in E. coli” value is reported as “not soluble”.
With “MAHHHHHHMQDEAVRAALQSGVWREKKDPKSGKTYYVNVQTRVSVWNLAKELARLQQQQKFTEEMELRKQKKLRSLAEERQAQAKKWQEEEEALMQRMAELEREKARLESEITILQGPTEVEAASLQEEQSRLLDAKQSLELIVSEELRKRRESAAELQQLQARLEALRQERQEELGMFESLRKRLEQLRQEHAEALADLQREEAVEESLREELQREERQLEDALHEEVRLKELLKMREDEVDRMKAELKAVCQRKAELQQQHQRLLEEVAESAMGAAEDTLQEPPPSSSLLLSHLQREVANRKKSLRHLMQQQRLAKEAEWMEAESAELRRFTALAEREAQRLAQFSRELSDQVRAVTPLLEAVKHDVQQLEEEMEELR” the “soluble on expression in E. coli” value was “soluble”.
In the case of “MTIKKYKTALSGMFPEEIQSFCGLKEKFRAQQIFHWIASGVNSFDEMTNLSFDMRSKLKNDFSLFSTKIKEALKDKDGTIKLAVELYDGSVIETVLLTDKAKRKTACVSCQAGCPMKCAFCKTGQIGFLRNLSASEIVEQFLHLEREAGSLDNIVFMGMGEPMLNLPEIDKAINILAHPKGRNLSKRRITISTSGLCKGIYEMADKGPEVRLAVSLTTADETLRSELMPITKTNSLDELKQAIKYFNSKSNKRVTLELALMKGLNTDKKAAQEVIEFAKGLECFINLIPWNPVEGLNFKTPSETEVRTFETYLKKAGLNISTRQKRGQSIGGACGQLGSTAARSNRF”, the “soluble on expression in E. coli” value is reported as “not soluble”.
In the case of “MITFIGHVSKDVNVVDGKREIAYGGGVVMGAITSSLLGVKTKVITKCTREDVSKFSFLRDNGVEVVFLKSPRTTSIENRYGSDPDTRESFLISAADPFTESDLAFIEGEAVHINPLWYGEFPEDLIPVLRRKVMFLSADAQGFVRVPENEKLVYRDWEMKEKYLKYLDLFKVDSREAETLTGTNDLRESCRIIRSFGAKIILATHASGVIVFDGNFYEASFRSWSLEGRTGRGDTCTAAFLVGFVFKKMSIEKATKFAAAVTSVKMRHPGPLRREDLEAISGDQYF”, the “soluble on expression in E. coli” value is reported as “not soluble”.
For “ETVIMKYLLPTAAAGLLLLAAQPAMAQVKLQQSGAELVRSGTSVKLSCTASGFNIKDSYMHWLRQGPEQGLEWIGWIDPENGDTEYAPKFQGKATFTTDTSSNTAYLQLSSLTSEDTAVYYCNEGTPTGPYYFDYWGQGTTVTVSSGGGGSGGGGSGGGGSENVLTQSPAIMSASPGEKVTITCSASSSVSYMHWFQQKPGTSPKLWIYSTSNLASGVPARFSGSGSGTSYSLTISRMEAEDAATYYCQQRSSYPLTFGAGTKLELKRAAAEQKLISEEDLN”, the “soluble on expression in E. coli” value was “soluble”.
With “MSLQVSLNPEWLARNNDEHKIRRNDHRSPFQRDRARILHSAAFRRLQAKTQVHGTSLNDFHRTRLTHSLEAAQIGTGIVAQIKLKQPEFRELLPSDSLIDSLCLAHDIGHPPYGHGGEIALNYMMRDHGGFEGNAQTFRIVTSLEPYTEHHGMNLSRRTLLGLLKYPALLSATRAAIPPPAVAHQRQLKAKDWSPAKGIYDCDLASLDWVLEPLCESDRELLGQMRAEPSSPKEHRKTRFKSLDCSIMELADDIAYGVHDLEDAIVLGMVTRAQWQEAAAAQLAECGDPWFEEHIAELSEMLFSGKHYVRKDAIGGIVNALLTSISVKPVEAPFHNELLAFNAYIEPHMGNALEVLKHFVSQYVIQIPQVQRFEYKGQQLIMDLFEALSADPERLLPQATGEKWRKAQEQDEGMRVICDYIAAMTDAYAQRLHQQLFSAQSHYEGGSHHHHHH” the “soluble on expression in E. coli” value was “soluble”.
In the case of “SFDNLRNELSRPYGILFINNKIFLEFISKSIQRGSRIITVGDYVSRVLEENGIVPFLEVIDGKTKRTITQNRAITRNKEYKVTNEAGKIRFEIFEIMENILKDREGGVVFVDGEEDLLVIPVTLSANHGDIVIYGQPNAGAVVIIVNEMIRWRVRDILEKAIVKE”, the “soluble on expression in E. coli” value is reported as “not soluble”.
In the case of “MKVLVPVKRLIDYNVKARVKSDGSGVDLANVKMSMNPFDEIAVEEAIRLKEKGQAEEIIAVSIGVKQAAETLRTALAMGADRAILVVAADDVQQDIEPLAVAKILAAVARAEGTELIIAGKQAIDNDMNATGQMLAAILGWAQATFASKVEIEGAKAKVTREVDGGLQTIAVSLPAVVTADLRLNEPRYASLPNIMKAKKKPLDEKTAADYGVDVAPRLEVVSVREPEGRKAGIKVGSVDELVGKLKEAGVI”, the “soluble on expression in E. coli” value is reported as “soluble”.
In the case of “MQNSALKAWLDSSYLSGANQSWIEQLYEDFLTDPDSVDANWRSTFQQLPGTGVKPDQFHSQTREYFRRLAKDASRYSSTISDPDTNVKQVKVLQLINAYRFRGHQHANLDPLGLWQQDKVADLDPSFHDLTEADFQETFNVGSFASGKETMKLGELLEALKQTYCGPIGAEYMHITSTEEKRWIQQRIESGRATFNSEEKKRFLSELTAAEGLERYLGAKFPGAKRFSLEGGDALIPMLKEMIRHAGNSGTREVVLGMAHRGRLNVLVNVLGKKPQDLFDEFAGKHKEHLGTGDVKYHMGFSSDFQTDGGLVHLALAFNPSHLEIVSPVVIGSVRARLDRLDEPSSNKVLPITIHGDAAVTGQGVVQETLNMSKARGYEVGGTVRIVINNQVGFTTSNPLDARSTPYCTDIGKMVQAPIFHVNADDPEAVAFVTRLALDFRNTFKRDVFIDLVCYRRHGHNEADEPSATQPLMYQKIKKHPTPRKIYADKLEQEKVATLEDATEMVNLYRDALDAGDCVVAEWRPMNMHSFTWSPYLNHEWDEEYPNKVEMKRLQELAKRISTVPEAVEMQSRVAKIYADRQAMAAGEKLFDWGGAENLAYATLVDEGIPVRLSGEDSGRGTFFHRHAVIHNQSNGSTYTPLQHIHNGQGAFRVWDSVLSEEAVLAFEYGYATAEPRTLTIWEAQFGDFANGAQVVIDQFISSGEQKWGRMCGLVMLLPHGYEGQGPEHSSARLERYLQLCAEQNMQVCVPSTPAQVYHMLRRQALRGMRRPLVVMSPKSLLRHPLAVSSLEELANGTFLPAIGEIDELDPKGVKRVVMCSGKVYYDLLEQRRKNNQHDVAIVRIEQLYPFPHKAMQEVLQQFAHVKDFVWCQEEPLNQGAWYCSQHHFREVIPFGASLRYAGRPASASPAVGYMSVHQKQQQDLVNDALNVE”, the “soluble on expression in E. coli” value is reported as “soluble”.
In the case of “MGSDKIHHHHHHMMGLKAHAMVLEKFNQPLVYKEFEISDIPRGSILVEILSAGVCGSDVHMFRGEDPRVPLPIILGHEGAGRVVEVNGEKRDLNGELLKPGDLIVWNRGITCGECYWCKVSKEPYLCPNRKVYGINRGCSEYPHLRGCYSSHIVLDPETDVLKVSEKDDLDVLAMAMCSGATAYHAFDEYPESFAGKTVVIQGAGPLGLFGVVIARSLGAENVIVIAGSPNRLKLAEEIGADLTLNRRETSVEERRKAIMDITHGRGADFILEATGDSRALLEGSELLRRGGFYSVAGVAVPQDPVPFKVYEWLVLKNATFKGIWVSDTSHFVKTVSITSRNYQLLSKLITHRLPLKEANKALELMESREALKVILYPEG”, the “soluble on expression in E. coli” value is reported as “soluble”.
With “GHMGITRDVQVPDVRGQSSADAIATLQNRGFKIRTLQKPDSTIPPDHVIGTDPAANTSVSAGDEITVNVSTGPEQREIPDVSTLTYAEAVKKLTAAGFGRFKQANSPSTPELVGKVIGTNPPANQTSAITNVVIIIVGSGPATKDIPDVAGQTVDVAQKNLNVYGFTKFSQASVDSPRPAGEVTGTNPPAGTTVPVDSVIELQVSKGNQFVMPDLSGMFWVDAEPRLRALGWTGMLDKGADVDAGGSQHNRVVYQNPPAGTGVNRDGIITLRFGQ” the “soluble on expression in E. coli” value was “soluble”.
For “DMWVYCETQAGDLVDVSKEMLGKARELMNDYNAAYDEDERVVAVLIGAAASDHVEDVIAYGADLVVYHEDDRLDRFRHQPYTEIFCDMARAGGDLAADGREETEWKDYHEPRYTVFPATNNGRDLSALVQGELDSGLASDCSGLYIESAMISNPAKVGTAGDKKEFERVLHMKRPDFSGFEYSTILCIDKPHRDFHPQGASVIPGSFEMPDPDYERDGEVVDYGMDIDDDWFTVEVEEYDRLSGGVD”, the “soluble on expression in E. coli” value was “not soluble”.
For “MGSDKIHHHHHHMKLTAQIHIEKMAYELRDHAHAVIKNVLLMSNISTLSLQLAMRELAQHSRVALHFHPDQIDNRGLTVVDGLLRDGVYKSQFETHVSNGHLSPELGGSRDHWENQLFGHSYSGIKHRPKYGALDFGLCPLGPAPRFGSCYLVTHPQILSRCTFSYMDSHRLPKEKGTIKCFDAILAALLSESFERQYALGVSGLKPSKLIEHFSQHLTDDISRRFDLVPSGNLDHYIEAQIHGDVSLDQDIAILVADPSYMGTAIGDSLIALCHEYGIELHWHQGRQINVAQIPDDFRGAAMPILAQSLAENELINAEIIGRAAYQLQKQPASWSERGAHSKKRQDLKLLWHVLVKYGESTGQ”, the “soluble on expression in E. coli” value was “not soluble”.
In the case of “MAVGTEESDFEGWAFPFPGVMLIEDFVTREEEAELVRLMDRDPWKLSQSGRRKQDYGPKVNFRKQKLKTEGFCGLPSFSREVVRRMGLYPGLEGFRPVEQCNLDYCPERGSAIDPHLDDAWLWGERLVSLNLLSPTVLSMCREAPGSLLLCSAPSAAPEALVDSVIAPSRSVLCQEVEVAIPLPARSLLVLTGAARHQWKHAIHRRHIEARRVCVTFRELSAEFGPGGRQQELGQELLRIALSFQGRPVLEHHHHHH”, the “soluble on expression in E. coli” value is reported as “soluble”.
With “MLRITELKLPIDHPEEDLRVALLQHLGIDSSELLDFTLFKRSYDARKKSSELCFIYTIDFQVKDEAALLRKLANDRHVGPAPDVSYKVVGHAPEGLSERPIVVGFGPCGIFAGLLLAQMGFKPIILERGTEVRQRTKDTWALWRKNVLNAESNVQFGEGGAGTFSDGKLYSQIKDPKFIGRKVLHEFVKAGAPEEILYVSKPHIGTFRLTGVVENMRHQIEALGGEVRFQQRVTDLMIEDGQLLGVQLDSGEQIESRHVILALGHSARDTFRMLHGRGVFMEAKPFSVGFRIEHPQSLIDRARLGKYAGHPKLGAADYKLVHHASNGRSVYSFCMCPGGTVVAATSEPGRVVTNGMSQYSRNERNANSGIVVGISPEQDFPGSPLAGIELQERLESHAYLLGGSNYEAPAQLVGDFIAGRASTALGSVEPSYKPGVKLVDLAEALPAFAIEAIREALPAFDKQIKGFSLHDAVLTGIETRTSAPLRITRGPTMQSLNTKGLYPAGEGAGYAGGILSAGVDGIRVAEALVRDMLGIEGLEHHHHHH” the “soluble on expression in E. coli” value was “soluble”.
For “MKEEATTLPQQFIKKYRLLLGEEASDFFSALEQGSVKKGFRWNPLKPAGLDMVQTYHSEELQPAPYSNEGFLGTVNGKSFLHQAGYEYSQEPSAMIVGTAAAAKPGEKVLDLCAAPGGKSTQLAAQMKGKGLLVTNEIFPKRAKILSENIERWGVSNAIVTNHAPAELVPHFSGFFDRIVVDAPCSGEGMFRKDPNAIKEWTEESPLYCQKRQQEILSSAIKMLKNKGQLIYSTCTFAPEENEEIISWLVENYPVTIEEIPLTQSVSSGRSEWGSVAGLEKTIRIWPHKDQGEGHFVAKLTFHGQNQMHKEKKTRKKSKVQMTKEQEKLWTEFSNDFHYEATGRLLVFNDHLWEVPELAPSLDGLKVVRTGLHLGDFKKNRFEPSYALALATKKIENIPCLPITQKEWQSYTAGETFQRDGNQGWVLLVLDKIPVGFGKQVKGTVKNFFPKGLRFH”, the “soluble on expression in E. coli” value was “soluble”.
